Patent publication US20230088277A1 (SHANGHAI SYNVIDA BIOTECHNOLOGY, published 2023)
Residue numbers refer to the chain shown, from its start.

B1: LF2 (antibody, V domains shown)
VH: EVQLQQSGPELVKPGASMKISCKASGYSFTGYPMNWVRQSHVKNLEWIGVINPYNGGTSYNQKFKGKATLTVDKSSSTAYIELLSLTSDDSAVYYCARGGVRPFAYWGQGTLVTVSA
VL: DIQMTQTSSSFSVSLGDRVTITCKASEDIYNRLAWYQQKPGNAPRLLISGATSLETGVPSRFSGSGSGNDYTLSITSLQTEDVATYYCQQYWSTPTFGAGTKLELQ
notes: Mouse monoclonal antibody from hybridoma
B2: LF11 (antibody, V domains shown)
VH: B1 VH with R38K, S40T, V42G, V50L, I81M, D90E, A105D, Y106F
VL: DIVITQSPAIMSASPGEKVTMTCSARSSVSYMYWYQQKPGSSPRLLIYDTSKLASGVPVRFSGSGSGTSYSLTISRMEAEDAATYFCQQWSSYPPTFGGGTKLEIK
notes: as for B1
B3: LF7 (antibody, V domains shown)
VH: B1 VH with V42G, P53S, T58A, S77N, T78I, A79V, Y80H, I81M, D89E
VL: DIVMTQSQKFMSTSVGDRVSVTCKASQNVDTNVAWYQQKPGQSPKALIYSASYRYSGVPDRFTGSGSGTDFTLTISNVQSEDLAEYFCQQYDSYPYTFGGGTKLEIR
notes: as for B1
B4: LF2-hIgG4 (antibody, V domains shown)
VH: B1 VH
VL: B1 VL
notes: read from the name as the variable domains of LF2 on human IgG4 constant regions; also called LF2-hlgG 4
B5: LF16 (antibody, V domains shown)
VH: EVQLQQSGPELVKPGASMKISCKASGYAFTGYTMNWVKQSHGKNLDWIGVINGYNGGTSYNQKFKGKATLTVDKSSSTAYMELLSLTSEDSAIYYCARGGPTTGFVYWGQGTLVTVSA
VL: B1 VL with N69K, Q106K
notes: as for B1
B6: LF3 (antibody, V domains shown)
VH: B1 VH with R38K, S40T, V42G, V50L, I81M, D90E, A105D, Y106F
VL: B1 VL
notes: as for B1
B7: hLF109 (antibody, V domains shown)
VH: QVQLVQSGAEVKKPGASVKVSCKASGYTFTGYPMNWVRQAPGQNLEWMGVINPYNGGTSYNQKFKGRVTLTVDKSASTAYMELSSLRSEDTAVYYCARGGVRPFAYWGQGTLVTVSS
VL: DIQMTQSPSSLSASVGDRVTITCKASEDIYNRLAWYQQKPGKAPKLLISGATSLETGVPSRFSGSGSGNDFTLTISSLQPEDFATYYCQQYWSTPTFGQGTKLEIK
notes: Humanized antibody
B8: hLF108 (antibody, V domains shown)
VH: B7 VH with Q43K, N44R, V68A, K74T
VL: B7 VL with K42N, F71Y
notes: Humanized antibody
B9: hLF104 (antibody, V domains shown)
VH: B7 VH with V72R
VL: B7 VL with K42N, F71Y
notes: Humanized antibody
B10: hLF111 (antibody, V domains shown)
VH: B7 VH
VL: B7 VL with F71Y
notes: Humanized antibody
B11: hLF112 (antibody, V domains shown)
VH: B7 VH
VL: B7 VL with K42N, F71Y
notes: Humanized antibody
B12: hLF101 (antibody, V domains shown)
VH: B7 VH with V72R
VL: B7 VL
notes: Humanized antibody (CDR grafting with back mutations)
B13: hLF103 (antibody, V domains shown)
VH: B7 VH with V72R
VL: B7 VL with F71Y
notes: Humanized antibody
B14: hLF102 (antibody, V domains shown)
VH: B7 VH with V72R
VL: B7 VL with K42N
notes: Humanized antibody
B15: hLF105 (antibody, V domains shown)
VH: B7 VH with Q43K, N44R, V68A, K74T
VL: B7 VL
notes: Humanized antibody
B16: hLF113 (antibody, V domains shown)
VH: B7 VH with Q43K, V68A
VL: B7 VL
notes: Humanized antibody
B17: hLF106 (antibody, V domains shown)
VH: B7 VH with Q43K, N44R, V68A, K74T
VL: B7 VL with K42N
notes: Humanized antibody
B18: hLF116 (antibody, V domains shown)
VH: B7 VH with Q43K, V68A
VL: B7 VL with K42N, F71Y
notes: Humanized antibody
B19: hLF110 (antibody, V domains shown)
VH: B7 VH
VL: B7 VL with K42N
notes: Humanized antibody; also called hLFHO
B20: hLF107 (antibody, V domains shown)
VH: B7 VH with Q43K, N44R, V68A, K74T
VL: B7 VL with F71Y
notes: Humanized antibody
B21: hLF114 (antibody, V domains shown)
VH: B7 VH with Q43K, V68A
VL: B7 VL with K42N
notes: Humanized antibody
B22: hLF115 (antibody, V domains shown)
VH: B7 VH with Q43K, V68A
VL: B7 VL with F71Y
notes: Humanized antibody
B23: LF15 (antibody, V domains shown)
VH: EVQLQQSGPELVKPGASMKISCKASGYSFTGYTMNWVKQSHGENLEWIGVINPYNGGTSYNQKFKGKATLTVDKSFSTAYMEILSLTSEDSAVYYCSRGGGNSWFAYWGQGTLVTVSA
VL: DIQMTQTSSYLSVSLGGRVTITCKASDHINNWLAWYQQKPGNAPRLLISGATSLETGVPSRFSGSGSGTDYSLTITSLQTEDVATYYCQQYWSIPTFGGGTRLEIK
notes: as for B1

Columns and labels:
[1] = target: T1, 6×His tag human Pear1 extracellular segment (Leu-21-Ser; 754) (human, UniProt Q5VY43 21-754); assay: ELISA, plate coated with human Pear1 ECD
T1 construct: range 21-754; The ELISA and the Biacore test only say 'human Pear1 ECD protein' / 'extracellular segment'; also called human Pear1 ECD protein; human Pear1ECD protein; not shown: 6×His tag
T1 sequence (looked up): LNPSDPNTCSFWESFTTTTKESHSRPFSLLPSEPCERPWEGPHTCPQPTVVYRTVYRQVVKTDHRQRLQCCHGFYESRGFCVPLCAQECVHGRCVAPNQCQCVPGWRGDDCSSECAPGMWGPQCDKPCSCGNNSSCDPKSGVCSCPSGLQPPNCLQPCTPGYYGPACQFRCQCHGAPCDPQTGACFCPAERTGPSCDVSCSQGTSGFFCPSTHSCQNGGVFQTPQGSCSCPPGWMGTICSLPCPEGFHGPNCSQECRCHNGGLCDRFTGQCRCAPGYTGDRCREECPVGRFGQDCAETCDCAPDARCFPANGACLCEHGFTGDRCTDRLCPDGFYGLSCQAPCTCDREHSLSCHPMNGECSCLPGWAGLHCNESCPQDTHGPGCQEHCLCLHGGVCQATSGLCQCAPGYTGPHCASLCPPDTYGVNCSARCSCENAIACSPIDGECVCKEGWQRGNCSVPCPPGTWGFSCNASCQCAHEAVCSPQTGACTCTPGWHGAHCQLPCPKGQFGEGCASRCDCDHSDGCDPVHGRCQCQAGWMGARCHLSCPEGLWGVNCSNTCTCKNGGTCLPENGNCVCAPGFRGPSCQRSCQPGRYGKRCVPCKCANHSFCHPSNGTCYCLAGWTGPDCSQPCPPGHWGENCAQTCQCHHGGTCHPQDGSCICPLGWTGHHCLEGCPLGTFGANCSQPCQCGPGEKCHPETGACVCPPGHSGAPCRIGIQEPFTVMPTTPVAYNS
Protocol: FIG. 6 The comparison of the affinities of the anti-human Pear1 antibodies to human Pear1. The ELISA plate was coated with human Pear1 ECD proteins and the reactions were conducted between antibodies at different concentrations (2000 ng/mL, 1000 ng/mL, 500 ng/mL, 250 ng/mL, 125 ng/mL, 62.5 ng/mL, 31.25 ng/mL, 15.625 ng/mL, 7.8125 ng/mL, 3.90625 ng/mL, 1.953125 ng/mL, 0.9765625 ng/mL) and the human Pear1 ECD proteins. OD value was measured to obtain the EC 50 value of the antigen-antibody combination
8.2.1 Comparison of antigen binding ability of these antibodies.

[2] = target: T1, 6×His tag human Pear1 extracellular …; assay: SPR (Biacore); antibody as ligand, Pear1 extracellular segment

Binder | EC50 [1] [µg/mL] | Kd [2] [nM] | koff [2] [s⁻¹] | kon [2] [M⁻¹ s⁻¹] | t1/2 [2] [min]
B1 | 0.0111 | – | – | – | –
B2 | 0.00891 | – | – | – | –
B3 | 0.0336 | – | – | – | –
B4 | – | 3.52 | 0.000187 | 53100 | 61.8
B5 | 0.0547 | – | – | – | –
B6 | 0.00927 | – | – | – | –
B7 | – | 6.14 | 0.000249 | 40500 | 46.4
B8 | – | 5.98 | 0.000307 | 51300 | 37.7
B9 | – | 13.3 | 0.000506 | 38000 | 22.8
B10 | – | 6.87 | 0.000271 | 39500 | 42.6
B11 | – | 4.99 | 0.000237 | 47500 | 48.7
B12 | – | 7.67 | 0.000393 | 51200 | 29.4
B13 | – | 19 | 0.000532 | 28000 | 21.7
B14 | – | 7.87 | 0.000395 | 50200 | 29.2
B15 | – | 3.82 | 0.000176 | 46200 | 65.6
B16 | – | 4.28 | 0.000201 | 47000 | 57.4
B17 | – | 5.8 | 0.000233 | 40100 | 49.7
B18 | – | 5.09 | 0.000221 | 43400 | 52.3
B19 | – | 5.42 | 0.000236 | 43500 | 49
B20 | – | 6.74 | 0.000345 | 51200 | 33.5
B21 | – | 5.09 | 0.000232 | 45600 | 49.8
B22 | – | 5.31 | 0.000235 | 44200 | 49.2
B23 | 0.0807 | – | – | – | –
